This note sets out measurements from patent US20160136299A1 (Sanofi, published 2016).

The target of the assay is T1, Recombinant human FcγRI (human, UniProt P12314 16-292, limits assumed).
T1 construct: not shown: His tag (captured on anti-tetra-His antibody)
As to the kind of experiment: Biacore SPR; FcγRI captured on anti-tetra-His, antibody 100 nM.

T1 sequence (P12314 16-292 limits assumed): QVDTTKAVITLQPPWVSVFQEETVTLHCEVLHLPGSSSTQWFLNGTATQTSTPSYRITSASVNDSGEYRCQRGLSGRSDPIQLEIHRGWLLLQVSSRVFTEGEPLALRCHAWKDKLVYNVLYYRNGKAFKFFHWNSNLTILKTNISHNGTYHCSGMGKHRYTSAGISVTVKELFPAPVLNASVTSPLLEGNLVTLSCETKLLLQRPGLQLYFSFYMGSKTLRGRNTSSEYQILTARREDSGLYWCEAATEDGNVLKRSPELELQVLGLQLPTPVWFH

B1: Anti-αβTCR clone H66 S298N/Y300S antibody (antibody, human IgG1, kappa)
heavy: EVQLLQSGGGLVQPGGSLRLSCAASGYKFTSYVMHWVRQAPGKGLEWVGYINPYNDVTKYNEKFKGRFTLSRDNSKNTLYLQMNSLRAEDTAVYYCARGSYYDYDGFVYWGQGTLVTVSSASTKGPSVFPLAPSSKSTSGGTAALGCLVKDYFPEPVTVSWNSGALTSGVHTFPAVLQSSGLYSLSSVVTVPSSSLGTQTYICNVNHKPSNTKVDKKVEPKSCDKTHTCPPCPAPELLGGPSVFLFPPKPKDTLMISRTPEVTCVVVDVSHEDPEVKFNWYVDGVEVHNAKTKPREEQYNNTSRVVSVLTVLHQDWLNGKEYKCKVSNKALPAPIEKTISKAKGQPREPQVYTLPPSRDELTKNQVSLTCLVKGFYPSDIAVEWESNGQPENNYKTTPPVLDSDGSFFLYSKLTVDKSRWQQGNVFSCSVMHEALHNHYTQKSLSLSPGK
light: EIVLTQSPATLSLSPGERATLSCSATSSVSYMHWYQQKPGQAPRRLIYDTSKLASGVPARFSGSGSGTSYTLTISSLEPEDFAVYYCQQWSSNPLTFGGGTKVEIKRTVAAPSVFIFPPSDEQLKSGTASVVCLLNNFYPREAKVQWKVDNALQSGNSQESVTEQDSKDSTYSLSSTLTLSKADYEKHKVYACEVTHQGLSSPVTKSFNRGEC
notes: Full-length human IgG1; also called SY; S298N/Y300S H66
As for B1, the binding result is recorded as “binds”.

B2: Anti-αβTCR clone H66 N297Q/S298N/Y300S antibody (antibody, human IgG1, kappa)
heavy: EVQLLQSGGGLVQPGGSLRLSCAASGYKFTSYVMHWVRQAPGKGLEWVGYINPYNDVTKYNEKFKGRFTLSRDNSKNTLYLQMNSLRAEDTAVYYCARGSYYDYDGFVYWGQGTLVTVSSASTKGPSVFPLAPSSKSTSGGTAALGCLVKDYFPEPVTVSWNSGALTSGVHTFPAVLQSSGLYSLSSVVTVPSSSLGTQTYICNVNHKPSNTKVDKKVEPKSCDKTHTCPPCPAPELLGGPSVFLFPPKPKDTLMISRTPEVTCVVVDVSHEDPEVKFNWYVDGVEVHNAKTKPREEQYQNTSRVVSVLTVLHQDWLNGKEYKCKVSNKALPAPIEKTISKAKGQPREPQVYTLPPSRDELTKNQVSLTCLVKGFYPSDIAVEWESNGQPENNYKTTPPVLDSDGSFFLYSKLTVDKSRWQQGNVFSCSVMHEALHNHYTQKSLSLSPGK
light: EIVLTQSPATLSLSPGERATLSCSATSSVSYMHWYQQKPGQAPRRLIYDTSKLASGVPARFSGSGSGTSYTLTISSLEPEDFAVYYCQQWSSNPLTFGGGTKVEIKRTVAAPSVFIFPPSDEQLKSGTASVVCLLNNFYPREAKVQWKVDNALQSGNSQESVTEQDSKDSTYSLSSTLTLSKADYEKHKVYACEVTHQGLSSPVTKSFNRGEC
notes: Full-length human IgG1; also called NSY
Consider B2, for which the binding result is reported as “binds”.
